Results: publication PMC8757827, “A Novel Regulation of K-antigen Capsule Synthesis in Porphyromonas gingivalis Is Driven by the Response Regulator PG0720-Directed Antisense RNA”

T1: PG0720 response regulator (Porphyromonas gingivalis W83) (UniProt Q7MWB1)
T1 sequence: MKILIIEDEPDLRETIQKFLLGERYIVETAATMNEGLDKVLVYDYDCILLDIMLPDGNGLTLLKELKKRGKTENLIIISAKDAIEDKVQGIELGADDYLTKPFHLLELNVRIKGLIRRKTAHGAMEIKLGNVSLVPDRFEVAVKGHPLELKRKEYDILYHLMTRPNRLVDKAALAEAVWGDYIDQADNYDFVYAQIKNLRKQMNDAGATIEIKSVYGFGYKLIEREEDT

T2: PG0720 response regulator (Porphyromonas gingivalis W83, UniProt Q7MWB1 1-229)
T2 sequence: T1 sequence

B1: 77-bp region (77bpIR2) (dsDNA)
DNA 1: ATTCGCACTTGTTTGATAATTGAATGTAGCAATCATGAGATCTATAAGTGTGTAACGGTTCAAATGCGATTGTCCTG
DNA 2: CAGGACAATCGCATTTGAACCGTTACACACTTATAGATCTCATGATTGCTACATTCAATTATCAAACAAGTGCGAAT

Experiments:
[1] = target: T1, PG0720 response regulator (Porphyromonas gingivalis W83); experiment: EMSA; conditions: 10 mM HEPES pH 7.8, 50 mM KCl, 5 mM MgCl2, 1 mM DTT, 1 mM EDTA, 1 ug poly(dI-dC), 1 ug BSA, 10% glycerol, 20 mM acetyl phosphate, room temperature 30 min …
[2] = target: T1, PG0720 response regulator (Porphyromonas gingivalis W83); experiment: DNase I footprinting; conditions: 10 mM HEPES pH 7.8, 50 mM KCl, 5 mM MgCl2, 1 mM DTT, 1 mM EDTA, 1 ug poly(dI-dC), 1 ug BSA, 10% glycerol, 20 mM acetyl phosphate, room temperature 30 min …
[3] = target: T2, PG0720 response regulator; experiment: EMSA; 20 mM acetyl phosphate; 5 mM Mg2+; up to 140 pmol protein, 3 fmol DNA; 10 mM HEPES pH 7.8, 50 mM KCl, 5 mM MgCl2, 1 mM DTT, 1 mM EDTA, 1 ug poly(dI-dC), 1 ug BSA, 10% glycerol, 20 mM acetyl phosphate, room temperature 30 min, 10 ul (50 ul for footprinting); conditions: protein: recombinant; tags: none (N-His-SUMO removed by SUMO Express protease); chain copies: 2; label: 5' biotin; blunt

Molecule	binding [1]	further results
TGTCAGGGCGATCGCGTTTGAAAATTTTTAGTCTCTTTCCTCTATGATTTGAATCTCTGACATATGG (double strand) [asSuGR promoter 67-bp]	binds	–
TGTCAGGGCGATCGCGTTTGAAAATTTTTAGTCTCTTTCCTCTATGATTTGAATCTCTGACATATGGATTCGCACTTGTTTGATAATTGAATGTAGCAATCATGAGATCTATAAGTGTGTAACGGTTCAAATGCGATTGTCCTGAATCATTCCA (double strand) [asSuGR promoter 154-bp]	binds	–
ACACATCACAACAATATCTTCAATAACATACCCCACATCCGCCCGTCTTCACTACGATCTAAATAAAATTTCCCCAATGACAAAACCGCCTTATTTTAAAAATTACACATAACAGAAAAAAGAGTGATTCTCATTATACTTTCTTTGACAATCAAATCCTTTCAACGATGATTTTTGAGACCCTAATAGAGCGCAAAGGTAATTAATTATCGTCTATATTCCTAAATCCCAGTGGAATGATTCAGGAC (double strand) [PG0106 upstream promoter 248-bp]	no binding	–
CAAACAAGTGCGAATCCATATGTCAGAGATTCAAATCATAGAGGAAAGAGACTAAAAATTTTCAAACGCGATCGCCCTGACAGGCTACCCCCGGGGT (double strand) [asSuGR promoter 97-bp footprint probe]	–	binding [2]: binds
B1	–	binding result [3]: no binding
